Assay results taken from IntAct's records for PubMed 23213219.

B1: UL37 immediate early glycoprotein (Human cytomegalovirus (strain AD169) (HHV-5)), P16778 (parent)
chain: MSPVYVNLLGSVGLLAFWYFSYRWIQRKRLEDPLPPWLRKKKACALTRRSRHRLRRQHGVIDGENSETERSVDLVAALLAEAGEESVTEDTEREDTEEEREDEEEENEARTPEVNPIDAEGLSGLAREACEALKKALRRHRFLWQRRQRARMLQHNGPQQSHHAAVFCRVHGLRGFQVSVWLLLTLLWSTGHGVSVRCTYHGTDVNRTSNTTSMNCHLNCTRNHTQIYNGPCLGTEARLPLNVTFNQSRRKWHSVMLKFGFQYHLEGWFPLRVLNESREINVTEVHGEVACFRNDTNVTVGQLTLNFTGHSYVLRAIAHTSPFESYVRWEETNVTDNATSSENTTTVMSTLTKYAESDYIFLQDMCPRFLKRTVKLTRNKTKHNVTVTGNNMTTLPVWTPECKGWTYWTTLSVMWRNRRSALLRAKSRALGHWALLSICTVAAGSIALLSLFCILLIGLRRDLLEDFRYICRDEGSSSTKNDVHRIV

Variants of: B1
Conditions: with bax_human BAX

Variant	effect of a mutation on the interaction
MSPVYVNLLGSVGLLAFWYFSYRWIQRKRLEDPLPPWLRKKKACALTRRSRHRLRRQHGVIDGENSETERSVDLVAALLAEAGEESVTEDTEREDTEEEREDEEEENEARTPEVNPIDAEGLSGLAREACEALKKALRRHRFLWQERQRARMLQHNGPQQSHHAAVFCRVHGLRGFQVSVWLLLTLLWSTGHGVSVRCTYHGTDVNRTSNTTSMNCHLNCTRNHTQIYNGPCLGTEARLPLNVTFNQSRRKWHSVMLKFGFQYHLEGWFPLRVLNESREINVTEVHGEVACFRNDTNVTVGQLTLNFTGHSYVLRAIAHTSPFESYVRWEETNVTDNATSSENTTTVMSTLTKYAESDYIFLQDMCPRFLKRTVKLTRNKTKHNVTVTGNNMTTLPVWTPECKGWTYWTTLSVMWRNRRSALLRAKSRALGHWALLSICTVAAGSIALLSLFCILLIGLRRDLLEDFRYICRDEGSSSTKNDVHRIV [R146E]	decreasing interaction strength
MSPVYVNLLGSVGLLAFWYFSYRWIQRKRLEDPLPPWLRKKKACALTRRSRHRLRRQHGVIDGENSETERSVDLVAALLAEAGEESVTEDTEREDTEEEREDEEEENEARTPEVNPIDAEGLSGLAREACEALKKALREHRFLWQRRQRARMLQHNGPQQSHHAAVFCRVHGLRGFQVSVWLLLTLLWSTGHGVSVRCTYHGTDVNRTSNTTSMNCHLNCTRNHTQIYNGPCLGTEARLPLNVTFNQSRRKWHSVMLKFGFQYHLEGWFPLRVLNESREINVTEVHGEVACFRNDTNVTVGQLTLNFTGHSYVLRAIAHTSPFESYVRWEETNVTDNATSSENTTTVMSTLTKYAESDYIFLQDMCPRFLKRTVKLTRNKTKHNVTVTGNNMTTLPVWTPECKGWTYWTTLSVMWRNRRSALLRAKSRALGHWALLSICTVAAGSIALLSLFCILLIGLRRDLLEDFRYICRDEGSSSTKNDVHRIV [R139E]	decreasing interaction strength
MSPVYVNLLGSVGLLAFWYFSYRWIQRKRLEDPLPPWLRKKKACALTRRSRHRLRRQHGVIDGENSETERSVDLVAALLAEAGEESVTEDTEREDTEEEREDEEEENEARTPEVNPIDAEGLSGLAREACEALKKALRRHRFAWQRRQRARMLQHNGPQQSHHAAVFCRVHGLRGFQVSVWLLLTLLWSTGHGVSVRCTYHGTDVNRTSNTTSMNCHLNCTRNHTQIYNGPCLGTEARLPLNVTFNQSRRKWHSVMLKFGFQYHLEGWFPLRVLNESREINVTEVHGEVACFRNDTNVTVGQLTLNFTGHSYVLRAIAHTSPFESYVRWEETNVTDNATSSENTTTVMSTLTKYAESDYIFLQDMCPRFLKRTVKLTRNKTKHNVTVTGNNMTTLPVWTPECKGWTYWTTLSVMWRNRRSALLRAKSRALGHWALLSICTVAAGSIALLSLFCILLIGLRRDLLEDFRYICRDEGSSSTKNDVHRIV [L143A]	decreasing interaction strength
